Target: DNMT3A (DNA methyltransferase 3A) (Homo sapiens (Human), UniProt Q9Y6K1 1-912)
Test: epitope mapping on a membrane of 12-mer DNMT3A peptides, 2 µg GST-ISGF3γ, fluorescence detection
Procedure: Then, 2 μg of GST-ISGF3γ protein were incubated with the membrane.

Sequence of DNMT3A (DNA methyltransferase 3A) (Q9Y6K1 whole entry): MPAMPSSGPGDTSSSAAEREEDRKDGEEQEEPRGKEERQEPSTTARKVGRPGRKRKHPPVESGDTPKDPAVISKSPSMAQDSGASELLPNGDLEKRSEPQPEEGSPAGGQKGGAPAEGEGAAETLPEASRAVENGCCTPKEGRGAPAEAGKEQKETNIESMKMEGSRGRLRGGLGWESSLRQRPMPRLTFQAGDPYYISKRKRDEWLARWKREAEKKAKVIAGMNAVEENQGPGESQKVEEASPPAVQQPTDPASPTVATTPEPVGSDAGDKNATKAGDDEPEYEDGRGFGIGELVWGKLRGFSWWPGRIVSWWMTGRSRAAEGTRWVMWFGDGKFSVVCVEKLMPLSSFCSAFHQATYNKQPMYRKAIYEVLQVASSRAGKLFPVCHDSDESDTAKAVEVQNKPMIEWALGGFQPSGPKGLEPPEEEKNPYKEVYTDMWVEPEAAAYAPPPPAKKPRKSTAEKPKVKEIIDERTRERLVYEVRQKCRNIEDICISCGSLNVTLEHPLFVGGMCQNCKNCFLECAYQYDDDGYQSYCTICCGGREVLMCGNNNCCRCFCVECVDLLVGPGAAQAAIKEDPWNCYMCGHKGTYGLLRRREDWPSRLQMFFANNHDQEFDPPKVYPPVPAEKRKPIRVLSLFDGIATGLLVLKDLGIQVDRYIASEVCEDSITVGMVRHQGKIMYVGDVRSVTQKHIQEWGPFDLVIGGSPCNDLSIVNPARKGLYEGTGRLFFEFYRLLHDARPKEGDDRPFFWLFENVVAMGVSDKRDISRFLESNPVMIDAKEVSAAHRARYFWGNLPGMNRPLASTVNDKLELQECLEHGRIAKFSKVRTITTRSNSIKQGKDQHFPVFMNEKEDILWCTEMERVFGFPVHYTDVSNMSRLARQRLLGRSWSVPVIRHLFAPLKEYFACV

B1: GST-ISGF3γ protein (other)
chain: MASGRARCTRKLRNWVVEQVESGQFPGVCWDDTAKTMFRIPWKHAGKQDFREDQDAAFFKAWAIFKGKYKEGDTGGPAVWKTRLRCALNKSSEFKEVPERGRMDVAEPYKVYQLLPPGIVSGQPGTQKVPSKRQHSSVSSERKEEEDAMQNCTLSPSVLQDSLNNEEEGASGGAVHSDIGSSSSSSSPEPQEVTDTTEAPFQGDQRSLEFLLPPEPDYSLLLTFIYNGRVVGEAQVQSLDCRLVAEPSGSESSMEQVLFPKPGPLEPTQRLLSQLERGILVASNPRGLFVQRLCPIPISWNAPQAPPGPGPHLLPSNECVELFRTAYFCRDLVRYFQGLGPPPKFQVTLNFWEESHGSSHTPQNLITVKMEQAFARYLLEQTPEQQAAILSLV
notes: Recombinant fusion used at 2 µg on the DNMT3A peptide membrane; not shown: GST (glutathione S-transferase) tag
binding result: binds

Source: patent US20180238885A1 (INSERM INSITUT NATIONAL DE LA SANTE ET DE LA RECHERCHE …, published 2018)
